Assay [1] addresses T1, Influenza A virus matrix protein M1 (full-length), strain A/Puerto Rico/8/34 (H1N1) (Influenza A virus A/Puerto Rico/8/34 (H1N1)), P03485.
T1 chain: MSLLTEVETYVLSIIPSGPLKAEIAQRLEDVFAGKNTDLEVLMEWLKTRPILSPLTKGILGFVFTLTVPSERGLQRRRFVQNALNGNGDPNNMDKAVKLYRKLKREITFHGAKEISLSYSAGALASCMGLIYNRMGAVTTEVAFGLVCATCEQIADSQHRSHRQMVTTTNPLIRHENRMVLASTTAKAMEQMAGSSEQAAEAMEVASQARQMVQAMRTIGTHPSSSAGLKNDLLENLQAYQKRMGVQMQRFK
As to the kind of experiment: AUC. The settings on record: remark: other sources report otherwise.

The target of assay [2] is T1, Influenza A virus matrix protein M1 …. As to the kind of experiment: SAXS. To be noted: remark: other sources report otherwise.

In article PMC3865061 one finds volume percent of large associates (volume percent) and volume fraction of clusters (volume fraction) data, which are given here for one molecule.

B1: Influenza A virus matrix protein M1 (full-length), strain A/Puerto Rico/8/34 (H1N1), P03485 1-252 (natural protein)
chain: T1 chain
Molecule B1 came in with a volume percent of large associates (volume percent) in assay [1] of 2 to 3. The molecule also came in with a volume fraction of clusters (volume fraction) in assay [2] of 0.03.
